From publication PMC9482650, “Quantitative fragmentomics allow affinity mapping of interactomes” (Nature Communications, 2022)
Each block holds one binder with its values, some of them ahead of it.

Columns and labels:
Assay in all cases: holdup assay
Set-up in all cases: key: below the threshold = too weak to quantify, mostly under pKd 3.1 to 4
Inadl_5, Q8NI35 = molecular target: Inadl_5, Q8NI35
APBA3_1, O96018 = molecular target: T1, APBA3_1, O96018
T1 sequence (O96018 389-490, limits assumed, looked up): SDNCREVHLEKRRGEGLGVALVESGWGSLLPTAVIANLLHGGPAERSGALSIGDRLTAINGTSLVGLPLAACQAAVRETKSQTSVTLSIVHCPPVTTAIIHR

LNX1_3, Q8TBB1 = molecular target: LNX1_3, Q8TBB1
Sequence of LNX1_3, Q8TBB1 (Q8TBB1 500-596): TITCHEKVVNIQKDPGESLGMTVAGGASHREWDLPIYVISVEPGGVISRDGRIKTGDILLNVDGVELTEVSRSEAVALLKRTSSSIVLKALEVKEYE

SNTA1, Q13424 = molecular target: T2, SNTA1, Q13424
T2 sequence (Q13424 82-180, limits assumed, looked up): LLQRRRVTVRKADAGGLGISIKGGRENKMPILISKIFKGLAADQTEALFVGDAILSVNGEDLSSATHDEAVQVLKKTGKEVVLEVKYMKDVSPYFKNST

DFNB31_1, Q9P202 = molecular target: T3, DFNB31_1, Q9P202
T3 sequence (Q9P202 135-233, limits assumed, looked up): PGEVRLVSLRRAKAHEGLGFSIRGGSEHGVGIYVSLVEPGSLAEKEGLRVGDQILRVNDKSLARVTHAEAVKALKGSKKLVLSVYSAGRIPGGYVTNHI

GRIP1_2, Q9Y3R0 = molecular target: T4, GRIP1_2, Q9Y3R0
T4 sequence (Q9Y3R0 145-248, limits assumed, looked up): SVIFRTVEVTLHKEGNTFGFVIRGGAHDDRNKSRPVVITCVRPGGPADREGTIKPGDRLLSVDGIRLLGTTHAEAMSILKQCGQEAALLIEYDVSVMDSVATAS

SNX27, Q96L92 = molecular target: SNX27, Q96L92
Inadl_8, Q8NI35 = molecular target: Inadl_8, Q8NI35
Sequence of Inadl_8, Q8NI35 (Q8NI35 1425-1530): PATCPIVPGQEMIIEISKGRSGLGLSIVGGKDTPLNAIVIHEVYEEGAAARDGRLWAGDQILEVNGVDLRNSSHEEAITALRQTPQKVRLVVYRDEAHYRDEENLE

DLG1_2, Q12959 = molecular target: DLG1_2, Q12959
Sequence of DLG1_2, Q12959 (Q12959 314-412): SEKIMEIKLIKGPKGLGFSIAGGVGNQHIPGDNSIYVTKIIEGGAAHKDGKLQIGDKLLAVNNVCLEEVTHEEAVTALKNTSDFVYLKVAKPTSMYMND

MPP6, Q9NZW5 = molecular target: T5, MPP6, Q9NZW5
T5 sequence (Q9NZW5 125-219, limits assumed, looked up): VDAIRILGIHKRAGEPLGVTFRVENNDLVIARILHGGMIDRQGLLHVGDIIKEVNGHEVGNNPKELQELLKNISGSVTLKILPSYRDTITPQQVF

GRASP, Q7Z6J2 = molecular target: GRASP, Q7Z6J2
Sequence of GRASP, Q7Z6J2 (Q7Z6J2 96-193): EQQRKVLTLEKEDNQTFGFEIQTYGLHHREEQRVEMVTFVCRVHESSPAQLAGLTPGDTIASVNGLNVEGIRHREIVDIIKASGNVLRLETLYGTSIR

NHERF3_1, Q5T2W1 = molecular target: T6, NHERF3_1, Q5T2W1
T6 sequence (Q5T2W1 4-100, limits assumed, looked up): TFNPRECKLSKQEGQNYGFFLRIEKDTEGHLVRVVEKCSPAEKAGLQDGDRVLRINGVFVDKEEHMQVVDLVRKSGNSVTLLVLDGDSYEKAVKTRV

PDZD2_2, O15018 = molecular target: T7, PDZD2_2, O15018
T7 sequence (O15018 329-429, limits assumed, looked up): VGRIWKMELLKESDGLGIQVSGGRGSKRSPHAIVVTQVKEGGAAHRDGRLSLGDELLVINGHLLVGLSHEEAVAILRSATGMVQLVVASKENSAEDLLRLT

LRRC7, Q96NW7 = molecular target: T8, LRRC7, Q96NW7
T8 sequence (Q96NW7 1440-1537, limits assumed, looked up): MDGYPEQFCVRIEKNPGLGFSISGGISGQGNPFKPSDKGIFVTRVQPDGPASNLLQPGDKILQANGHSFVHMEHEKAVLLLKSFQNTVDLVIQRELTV

NHERF4_2, Q86UT5 = molecular target: NHERF4_2, Q86UT5
Sequence of NHERF4_2, Q86UT5 (Q86UT5 220-308): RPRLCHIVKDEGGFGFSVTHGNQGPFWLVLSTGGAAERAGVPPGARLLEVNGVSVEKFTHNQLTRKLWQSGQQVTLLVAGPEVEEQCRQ

FRMPD2_2, Q68DX3 = molecular target: FRMPD2_2, Q68DX3
Sequence of FRMPD2_2, Q68DX3 (Q68DX3 944-1038): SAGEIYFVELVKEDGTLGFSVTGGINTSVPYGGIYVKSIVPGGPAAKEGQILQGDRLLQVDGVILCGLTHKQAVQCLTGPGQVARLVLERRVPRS

HTRA3, P83110 = molecular target: T9, HTRA3, P83110
T9 sequence (P83110 354-453, limits assumed, looked up): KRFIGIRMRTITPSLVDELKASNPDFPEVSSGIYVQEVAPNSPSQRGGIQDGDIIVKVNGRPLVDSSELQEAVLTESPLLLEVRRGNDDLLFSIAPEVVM

SIPA1L2, Q9P2F8 = molecular target: T10, SIPA1L2, Q9P2F8
T10 sequence (Q9P2F8 945-1036, limits assumed, looked up): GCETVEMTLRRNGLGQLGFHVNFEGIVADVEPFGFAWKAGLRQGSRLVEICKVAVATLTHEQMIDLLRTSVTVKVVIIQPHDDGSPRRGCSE

SNTG2, Q9NY99 = molecular target: T11, SNTG2, Q9NY99
T11 sequence (Q9NY99 68-166, limits assumed, looked up): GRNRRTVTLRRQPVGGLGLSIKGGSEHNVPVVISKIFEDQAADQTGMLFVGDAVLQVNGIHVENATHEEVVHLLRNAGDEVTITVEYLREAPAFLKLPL

APBA2_2, Q99767 = molecular target: T12, APBA2_2, Q99767
T12 sequence (Q99767 654-744, limits assumed, looked up): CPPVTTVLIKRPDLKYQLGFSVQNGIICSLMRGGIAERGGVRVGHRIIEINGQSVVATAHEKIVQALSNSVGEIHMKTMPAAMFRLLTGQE

MAGI2_4, Q86UL8 = molecular target: MAGI2_4, Q86UL8
Sequence of MAGI2_4, Q86UL8 (Q86UL8 772-865): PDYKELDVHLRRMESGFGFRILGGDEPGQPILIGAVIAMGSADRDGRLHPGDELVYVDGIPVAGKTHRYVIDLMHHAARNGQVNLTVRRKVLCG

DLG4_3, P78352 = molecular target: DLG4_3, P78352
Sequence of DLG4_3, P78352 (P78352 306-403): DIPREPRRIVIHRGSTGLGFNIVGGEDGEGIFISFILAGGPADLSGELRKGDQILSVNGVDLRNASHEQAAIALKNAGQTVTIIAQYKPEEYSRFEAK

PTPN13_1, Q12923 = molecular target: T13, PTPN13_1, Q12923
T13 sequence (Q12923 1088-1188, limits assumed, looked up): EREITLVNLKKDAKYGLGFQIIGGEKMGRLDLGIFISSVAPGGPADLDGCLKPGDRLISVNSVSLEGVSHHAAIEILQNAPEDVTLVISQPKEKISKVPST

FRMPD2_3, Q68DX3 = molecular target: FRMPD2_3, Q68DX3
Sequence of FRMPD2_3, Q68DX3 (Q68DX3 1073-1166): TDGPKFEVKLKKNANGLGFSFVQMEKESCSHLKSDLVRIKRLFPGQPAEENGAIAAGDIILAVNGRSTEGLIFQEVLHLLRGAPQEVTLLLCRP

MAGI2_6, Q86UL8 = molecular target: MAGI2_6, Q86UL8
Sequence of MAGI2_6, Q86UL8 (Q86UL8 1141-1229): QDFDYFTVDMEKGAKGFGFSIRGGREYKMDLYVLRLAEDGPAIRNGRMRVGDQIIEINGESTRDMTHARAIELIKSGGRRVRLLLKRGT

[1] = plain residues with an end cap or a label only (N-terminal biotin on a linker: ahx)
[2] = plain residues with an end cap or a label only (N-terminal biotin on a linker: ttds)

Sequence of Inadl_5, Q8NI35 (Q8NI35 673-780): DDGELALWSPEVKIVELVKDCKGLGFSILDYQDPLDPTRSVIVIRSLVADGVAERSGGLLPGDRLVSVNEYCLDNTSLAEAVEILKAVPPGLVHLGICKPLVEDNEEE

pKd (Inadl_5, Q8NI35; [1]): 3.61
pKd (APBA3_1, O96018; [1]): below the threshold
pKd (LNX1_3, Q8TBB1; [1]): below the threshold
pKd (SNTA1, Q13424; [1]): below the threshold
pKd (DFNB31_1, Q9P202; [1]): below the threshold
pKd (GRIP1_2, Q9Y3R0; [1]): below the threshold
pKd (SNX27, Q96L92; [1]): 3.83
pKd (Inadl_8, Q8NI35; [1]): below the threshold
pKd (DLG1_2, Q12959; [1]): below the threshold
pKd (MPP6, Q9NZW5; [1]): below the threshold
pKd (GRASP, Q7Z6J2; [1]): below the threshold
pKd (NHERF3_1, Q5T2W1; [1]): 4.91
pKd (PDZD2_2, O15018; [1]): below the threshold
pKd (LRRC7, Q96NW7; [1]): below the threshold
pKd (NHERF4_2, Q86UT5; [1]): below the threshold
pKd (FRMPD2_2, Q68DX3; [1]): below the threshold
pKd (HTRA3, P83110; [1]): below the threshold
pKd (SIPA1L2, Q9P2F8; [1]): below the threshold
pKd (SNTG2, Q9NY99; [1]): below the threshold
pKd (APBA2_2, Q99767; [1]): below the threshold
pKd (MAGI2_4, Q86UL8; [1]): 3.55
pKd (DLG4_3, P78352; [1]): below the threshold
pKd (PTPN13_1, Q12923; [1]): below the threshold
pKd (FRMPD2_3, Q68DX3; [1]): below the threshold
pKd (MAGI2_6, Q86UL8; [1]): 3.51
Binder: VNENQKEYFF [CNTNAP4, Q9C0A0]

pKd (Inadl_5, Q8NI35; [2]): below the threshold
pKd (APBA3_1, O96018; [2]): below the threshold
pKd (LNX1_3, Q8TBB1; [2]): below the threshold
pKd (SNTA1, Q13424; [2]): 4.06
pKd (DFNB31_1, Q9P202; [2]): 4.35
pKd (GRIP1_2, Q9Y3R0; [2]): 3.45
pKd (SNX27, Q96L92; [2]): 4.23
pKd (Inadl_8, Q8NI35; [2]): below the threshold
pKd (DLG1_2, Q12959; [2]): 4.7
pKd (MPP6, Q9NZW5; [2]): below the threshold
pKd (GRASP, Q7Z6J2; [2]): below the threshold
pKd (NHERF3_1, Q5T2W1; [2]): 3.68
pKd (PDZD2_2, O15018; [2]): 3.75
pKd (LRRC7, Q96NW7; [2]): below the threshold
pKd (NHERF4_2, Q86UT5; [2]): below the threshold
pKd (FRMPD2_2, Q68DX3; [2]): 3.31
pKd (HTRA3, P83110; [2]): below the threshold
pKd (SIPA1L2, Q9P2F8; [2]): below the threshold
pKd (SNTG2, Q9NY99; [2]): 4.32
pKd (APBA2_2, Q99767; [2]): below the threshold
pKd (MAGI2_4, Q86UL8; [2]): below the threshold
pKd (DLG4_3, P78352; [2]): 4.87
pKd (PTPN13_1, Q12923; [2]): below the threshold
pKd (FRMPD2_3, Q68DX3; [2]): below the threshold
pKd (MAGI2_6, Q86UL8; [2]): below the threshold
Binder: PSRDRKETSI [RALBP1, Q15311]
